Experiment [1] addresses T1, human Tissue Factor on MDA-MB-231 cells (human, UniProt P13726 33-295).
T1 construct: also called TF; hTF
The experiment is described as follows: flow cytometry, MDA-MB-231 cells; binding of 20 nM FVII-Fc-Alexa488 (competitor) left at 28 nM Ab.

Experiment [2] concerns the target T1, human Tissue Factor on MDA-MB-231 cells. The experiment is described as follows: cell-based or functional assay.
The target is the same in experiment [3]. As to the kind of experiment: flow cytometry, MDA-MB-231 cells; binding of 20 nM FVII-Fc-Alexa488 (competitor) left at 83 nM Ab.
The target is the same in experiment [4]. As to the kind of experiment: cell-based or functional assay. The source holds these as a separate data set.
Experiment [5] shares this target. As to the kind of experiment: flow cytometry, MDA-MB-231 cells; binding of 20 nM FVII-Fc-Alexa488 (competitor) left at 9.25 nM Ab.
Experiment [6] shares this target. As to the kind of experiment: flow cytometry, MDA-MB-231 cells; binding of 20 nM FVII-Fc-Alexa488 (competitor) left at 250 nM Ab.
The target in a further experiment is T2, hTF_N171H_T197K (human, UniProt P13726 33-251).
T2 construct: the entry already holds N171H and T197K; on transfected HEK293 cells
T2 chain: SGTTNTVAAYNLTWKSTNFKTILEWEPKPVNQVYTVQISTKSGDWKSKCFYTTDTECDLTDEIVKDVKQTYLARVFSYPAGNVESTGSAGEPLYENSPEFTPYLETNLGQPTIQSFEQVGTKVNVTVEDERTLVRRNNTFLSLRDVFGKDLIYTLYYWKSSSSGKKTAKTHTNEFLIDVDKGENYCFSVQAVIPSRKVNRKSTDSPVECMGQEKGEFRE
As to the kind of experiment: live cell staining of transfected HEK293, flow cytometry.

Experiment [7] deals with rTF (rat TF) on HEK293 cells (rat, UniProt P42533 29-252). The experiment is described as above.
Experiment [8] addresses T3, human TF ECD-His6 (human, UniProt P13726 33-251).
T3 construct: made in Expi293 cells; the entry holds the ECD with the C-terminal TG-His6; also called TF-His; hTF
As to the kind of experiment: SPR (Biacore), antibody on chip, TF-His titrated.

For experiment [9], the target named is T4, cynomolgus TF ECD-His6 (cynomolgus monkey (Macaca fascicularis)).
T4 construct: made in Expi293 cells; also called TF-His; cTF
T4 chain: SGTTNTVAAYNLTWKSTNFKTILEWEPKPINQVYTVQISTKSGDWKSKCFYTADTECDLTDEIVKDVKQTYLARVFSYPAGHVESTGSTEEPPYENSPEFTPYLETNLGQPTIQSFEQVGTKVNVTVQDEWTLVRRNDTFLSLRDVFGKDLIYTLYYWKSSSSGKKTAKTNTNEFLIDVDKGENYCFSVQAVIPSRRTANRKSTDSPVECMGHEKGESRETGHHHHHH
As to the kind of experiment: SPR (Biacore), antibody on chip, TF-His titrated.

Experiment [10] has as its target T3, human TF ECD-His6. As to the kind of experiment: BLI (ForteBio Octet).
In experiment [11] the target is T4, cynomolgus TF ECD-His6. As to the kind of experiment: BLI (ForteBio Octet).
Experiment [12] addresses T5, mouse TF ECD-His6 (mouse, UniProt P20352 29-251).
T5 construct: made in Expi293 cells; also called TF-His; mTF
The experiment is described as follows: BLI (ForteBio Octet).

The target of another experiment is Relipidated TF (UniProt P13726 33-295, limits assumed). As to the kind of experiment: cell-based or functional assay.
Experiment [13] deals with T5, mouse TF ECD-His6. As to the kind of experiment: SPR (Biacore), antibody on chip, TF-His titrated.

Where a chain is given by its changes, count along the chain named.

Sequence of rTF (rat TF) on HEK293 cells (P42533 29-252): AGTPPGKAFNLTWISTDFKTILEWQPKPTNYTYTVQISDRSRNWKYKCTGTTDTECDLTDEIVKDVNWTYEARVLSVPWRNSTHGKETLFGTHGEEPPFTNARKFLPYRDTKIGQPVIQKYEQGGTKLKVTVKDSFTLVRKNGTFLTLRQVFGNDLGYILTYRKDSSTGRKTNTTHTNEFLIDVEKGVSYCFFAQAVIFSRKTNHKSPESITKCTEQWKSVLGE

B1: 54E (antibody, V domains shown)
VH: QVQLVQSGAEVKKPGASVKVSCKASGYTFANYYMHWVRQAPGQGLEWMGIINPSGGITVYAQKFQGRVTMTRDTSTSTVYMELSSLRSEDTAVYYCARGGSKVAALAFDIWGQGTMVTVSS
VL: DIQMTQSPSSLSASVGDRVTITCQASQDISNSLNWYQQKPGKAPKLLIYDASNLETGVPSRFSGSRSGTDFTFTISSLQPEDIATYYCQQYNFHPLTFGGGTKVEIK
notes: Human anti-TF IgG1
As for B1, the “% FVIIa” value in experiment [1] amounted to 3%. In [2], the “% FXa, 12.5 nM Ab” value worked out at 53%; the “% FXa, 25 nM Ab” value is 44%; the “% FXa, 50 nM Ab” value was found to be 41%; the “% FXa, 100 nM Ab” value came out at 42%. In experiment [3], the “% FVIIa” value turned out to be 3%. In addition, in experiment [4], the “% IL8, 2.56 nM Ab” value came to 48%; the “% IL8, 6.4 nM Ab” value was determined as 8%; the “% IL8, 16 nM Ab” value amounted to 3%; the “% IL8, 40 nM Ab” value is 2%. The “% IL8, 100 nM Ab” value in [4] was found to be 2%. The “% FVIIa” value in experiment [5] came out at 11%. In addition, the “% FVIIa” value in experiment [6] was found to be 2%.

B2: 25A3 (antibody, human IgG1, kappa, V domains shown)
VH: QVQLVQSGAEVKKPGASVKVSCKASGYTFDVYGISWVRQAPGQGLEWMGWIAPYSGNTNYAQKLQGRVTMTTDTSTSTAYMELRSLRSDDTAVYYCARDAGTYSPFGYGMDVWGQGTTVTVSS
VL: DIQMTQSPSTLSASVGDRVTITCQASQSINNWLAWYQQKPGKAPKLLIYKAYNLESGVPSRFSGSGSGTEFTLTISSLQPDDFATYYCQLFQSLPPFTFGGGTKVEIKR
notes: human IgG1
With B2, the binding result in the experiment with hTF_N171H_T197K is given as “no binding”; in experiment [7], “no binding (tested: 15 µg/ml (100 nM))”. Moreover, the dissociation constant Kd with human TF ECD-His6 [8] worked out at 0.36 nM; with cynomolgus TF ECD-His6 [9], 0.21 nM; with human TF ECD-His6 [10] it was 1.67 nM; with cynomolgus TF ECD-His6 [11] it was 1.36 nM; with mouse TF ECD-His6 [12], 131 nM.

B3: 29D (antibody, V domains shown)
VH: QVQLVESGGGVVQPGRSLRLSCAASGFTFHSRGMHWVRQAPGKGLEWVAVITYDGINKYYADSVEGRFTISRDNSKNTLYLQMNSLRAEDTAVYYCARDGVYYGVYDYWGQGTLVTVSS
VL: not shown
notes: Human anti-TF IgG1
As to B3, the “% FVIIa” value in experiment [1] came to 4%. In addition, in experiment [2], the “% FXa, 12.5 nM Ab” value came to 85%; the “% FXa, 25 nM Ab” value was 77%; the “% FXa, 50 nM Ab” value was determined as 75%; the “% FXa, 100 nM Ab” value turned out to be 75%. The “% FVIIa” value in [3] is 3%. In experiment [4], the “% IL8, 2.56 nM Ab” value was 27%; the “% IL8, 6.4 nM Ab” value amounted to 6%; the “% IL8, 16 nM Ab” value is 2%; the “% IL8, 40 nM Ab” value turned out to be 2%. Moreover, the “% IL8, 100 nM Ab” value in experiment [4] worked out at 1%. The “% FVIIa” value in experiment [5] stood at 6%. Also, the “% FVIIa” value in [6] turned out to be 3%.

B4: 29E (antibody, V domains shown)
VH: B3 VH with H30R, R32Y
VL: not shown
notes: Human anti-TF IgG1
On to B4, for which the “% FVIIa” value in [1] was determined as 3%. Moreover, in the experiment with Relipidated TF, the “TGA % ETP, 10 nM Ab, 10 min pre-incubation” value amounted to 73%; the “TGA % ETP, 50 nM Ab, 10 min pre-incubation” value is 68%; the “TGA % ETP, 100 nM Ab, 10 min pre-incubation” value was determined as 64%; the “TGA % Peak IIa, 10 nM Ab, 10 min pre-incubation” value came out at 30%. Besides, in the experiment with Relipidated TF, the “TGA % Peak IIa, 50 nM Ab, 10 min pre-incubation” value amounted to 27%; the “TGA % Peak IIa, 100 nM Ab, 10 min pre-incubation” value was determined as 26%; the “TGA ETP, 10 nM Ab, 10 min pre-incubation” value came out at 1250 nM·min; the “TGA ETP, 50 nM Ab, 10 min pre-incubation” value stood at 1170 nM·min. Further, in the experiment with Relipidated TF, the “TGA ETP, 100 nM Ab, 10 min pre-incubation” value is 1100 nM·min; the “TGA Lag Time, 10 nM Ab, 10 min pre-incubation” value amounted to 10.4 min; the “TGA Lag Time, 50 nM Ab, 10 min pre-incubation” value is 14.2 min; the “TGA Lag Time, 100 nM Ab, 10 min pre-incubation” value was found to be 15.1 min. For the same molecule, in the experiment with Relipidated TF, the “TGA Peak IIa, 10 nM Ab, 10 min pre-incubation” value stood at 78 nM; the “TGA Peak IIa, 50 nM Ab, 10 min pre-incubation” value was 70 nM; the “TGA Peak IIa, 100 nM Ab, 10 min pre-incubation” value is 68 nM; the “TGA ttPeak, 10 nM Ab, 10 min pre-incubation” value amounted to 20.2 min. Moreover, in the experiment with Relipidated TF, the “TGA ttPeak, 50 nM Ab, 10 min pre-incubation” value turned out to be 24.3 min and the “TGA ttPeak, 100 nM Ab, 10 min pre-incubation” value stood at 25.3 min. Moreover, in experiment [2], the “% FXa, 12.5 nM Ab” value came to 81%; the “% FXa, 25 nM Ab” value worked out at 68%; the “% FXa, 50 nM Ab” value stood at 63%; the “% FXa, 100 nM Ab” value stood at 66%. The “% FVIIa” value in experiment [3] was found to be 2%. In [4], the “% IL8, 2.56 nM Ab” value turned out to be 33%; the “% IL8, 6.4 nM Ab” value came out at 5%; the “% IL8, 16 nM Ab” value came to 2%; the “% IL8, 40 nM Ab” value came out at 2%. Also, the “% IL8, 100 nM Ab” value in [4] stood at 2%. Further, the “% FVIIa” value in [5] is 5%. In addition, the “% FVIIa” value in experiment [6] is 2%.

B5: 43D7 (antibody, human IgG1, kappa, V domains shown)
VH: QVQLQQWGAGLLKPSETLSLTCAVYGGSLSGYYWSWIRQPPGKGLEWIGEIGASGSTRYNPSLKSRVTISVDTSKNQFSLKLSSVTAADTAVYYCARDTPYYYEGGYYYYMDVWGKGTTVTVSS
VL: EIVLTQSPGTLSLSPGERATLSCRASDSVDSSYLAWYQQKPGQAPRLLIYGAFSRANGIPDRFSGSGSGTDFTLTISRLEPEDFAVYYCQQAGVVPYTFGGGTKVEIKR
notes: human IgG1
On to B5, for which the Kd with mouse TF ECD-His6 [13] was 21 nM; with mouse TF ECD-His6 [12] it was 41.4 nM.

B6: 43D8 (antibody, human IgG1, kappa, V domains shown)
VH: B5 VH
VL: B5 VL with D27Q, D30S, Y33F, F53Y, N57T
notes: human IgG1; also called 43D8 mAb; test article
B6: the values for the Kd with mouse TF ECD-His6 [13] and in the experiment with mouse TF ECD-His6 [12] were 2.4 nM and 6.12 nM, respectively.

B7: 1G (antibody, V domains shown)
VH: EVQLLESGGGLVQPGGSLRLSCAASGFTFSSYAMAWVRQAPGKGLEWVSAISGSGGLTYYADSVKGRFTISRDNSKNTLYLQMNSLRAEDTAVYYCAKAPYGYYMDVWGKGTTVTVSS
VL: not shown
notes: Human anti-TF IgG1
Consider B7, for which, in [1], the “% FVIIa” value was 7%. Also, in experiment [2], the “% FXa, 12.5 nM Ab” value was found to be 55%; the “% FXa, 25 nM Ab” value was determined as 48%; the “% FXa, 50 nM Ab” value is 41%; the “% FXa, 100 nM Ab” value was 41%. Moreover, the “% FVIIa” value in experiment [3] is 7%. For the same molecule, in [4], the “% IL8, 2.56 nM Ab” value worked out at 26%; the “% IL8, 6.4 nM Ab” value amounted to 4%; the “% IL8, 16 nM Ab” value was found to be 3%; the “% IL8, 40 nM Ab” value amounted to 2%. Further, the “% IL8, 100 nM Ab” value in experiment [4] stood at 2%. Also, in [5], the “% FVIIa” value is 7%. Also, the “% FVIIa” value in experiment [6] came to 6%.
